Reference: patent US10941182 (Amgen, dated 2021)
Values belong to the binder of their own block, whether it stands above or below them. Starred links: 1 amine or outer side, 2 acyl side, 3 side chain; linkers in the order of their positions; H or OH if unused. Non-standard residues stand in square brackets, D forms with d. Primed or numbered codes have the meaning given here. *: point of attachment. AC4Abu = α-carboxy-4-aminobutyric acid, O=C(C(CCN[*:1])C(=O)[*:3])[*:2]; dBip = N[C@H](Cc1ccc(-c2ccccc2)cc1)C(=O)O; Oic = O=C(O)[C@@H]1C[C@@H]2CCCC[C@@H]2N1; Phe(4-Cl) = N[C@@H](Cc1ccc(Cl)cc1)C(=O)O; Phe(4-I) = N[C@@H](Cc1ccc(I)cc1)C(=O)O; γGlu = O=C(O)[C@H](CCC(=O)[*:2])N[*:1]; NMehArg = CN[C@@H](CCCCNC(=N)N)C(=O)O; HOOC(CH2)8CO = O=C(O)CCCCCCCCC(=O)*; NMeR = CN[C@@H](CCCNC(=N)N)C(=O)O; Tridecanoyl = CCCCCCCCCCCCC(=O)*; hArg = N=C(N)NCCCC[C@H](N)C(=O)O; Cha = N[C@@H](CC1CCCCC1)C(=O)O; NMeL = CN[C@@H](CC(C)C)C(=O)O; AC4Abu″ = not defined here; β3hP = O=C(O)C[C@@H]1CCCN1; Nle = CCCC[C@H](N)C(=O)O; AEEA = NCCOCCOCC(=O)O; Aib = CC(C)(N)C(=O)O

Experiments:
Assay in all cases: cell-based or functional assay
rat APJ receptor [1] = target: T1, rat APJ receptor (rat, UniProt Q9JHG3 1-377)
T1 sequence (looked up): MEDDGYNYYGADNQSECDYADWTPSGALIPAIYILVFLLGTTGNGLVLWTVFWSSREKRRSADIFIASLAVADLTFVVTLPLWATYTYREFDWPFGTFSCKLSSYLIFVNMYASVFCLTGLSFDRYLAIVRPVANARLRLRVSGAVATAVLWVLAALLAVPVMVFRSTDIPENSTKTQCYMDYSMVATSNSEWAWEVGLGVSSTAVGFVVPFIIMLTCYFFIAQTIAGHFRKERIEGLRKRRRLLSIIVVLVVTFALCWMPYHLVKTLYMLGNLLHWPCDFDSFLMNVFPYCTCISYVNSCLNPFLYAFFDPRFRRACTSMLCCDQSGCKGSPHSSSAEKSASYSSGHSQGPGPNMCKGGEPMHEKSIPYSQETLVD

human APJ receptor = target: T2, human APJ receptor (human, UniProt P35414 1-380)
T2 sequence (looked up): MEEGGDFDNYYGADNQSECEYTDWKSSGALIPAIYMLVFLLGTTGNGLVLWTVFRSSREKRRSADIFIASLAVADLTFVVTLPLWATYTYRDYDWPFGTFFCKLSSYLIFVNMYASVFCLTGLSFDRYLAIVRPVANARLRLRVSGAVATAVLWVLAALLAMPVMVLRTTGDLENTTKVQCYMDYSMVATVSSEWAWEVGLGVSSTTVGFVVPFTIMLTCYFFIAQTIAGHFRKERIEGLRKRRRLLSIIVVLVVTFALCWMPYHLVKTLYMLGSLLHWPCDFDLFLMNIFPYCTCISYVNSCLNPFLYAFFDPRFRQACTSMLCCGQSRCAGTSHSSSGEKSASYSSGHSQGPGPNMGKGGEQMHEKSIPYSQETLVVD

rat APJ receptor [2] = target: T3, rat APJ receptor (rat, UniProt Q9JHG3 1-377); remark: listed apart in the source
T3 sequence (looked up): T1 sequence (looked up)

EC50 Rat APJ Receptor (rat APJ receptor [1]): 0.467 nM
Binder: XXXQRPRLSHKGPXPF ({Subericacid}[AC4Abu][Aeea][Aeea]QRP[NMeArg]LSHKGP[Nle]P[4-Cl-F]{COOH}) [SEQ ID NO: 508]

EC50 Rat APJ Receptor (rat APJ receptor [1]): 0.453 nM
Binder: XXXQRPRLSHKGPXPF ({Butanoyl}[AC4Abu][Aeea][Aeea]QRP[NMeArg]LSHKGP[Nle]P[4-Cl-F]{COOH}) [SEQ ID NO: 491]

EC50 Rat APJ Receptor (rat APJ receptor [1]): 1 nM
Binder: XXXQRPRLSHKGPXPF ({AdpA}[AC4Abu][Aeea][Aeea]QRP[NMeArg]LSHKGP[Nle]P[4-Cl-F]{COOH}) [SEQ ID NO: 461]

EC50 Rat APJ Receptor (rat APJ receptor [1]): 1.39 nM
Binder: XXXQRPRLSHKGPXPF ({Succinicacid}[AC4Abu][Aeea][Aeea]QRP[NMeArg]LSHKGP[Nle]P[4-Cl-F]{COOH}) [SEQ ID NO: 497]

EC50 Rat APJ Receptor (rat APJ receptor [1]): 0.598 nM
Binder: XXXQRPRLSHKGPXPF ({Myristyl-NH}[AC4Abu][Aeea][Aeea]QRP[NMeArg]LSHKGP[Nle]P[4-Cl-F]{COOH}) [SEQ ID NO: 592]

EC50 Rat APJ Receptor (rat APJ receptor [1]): 9.15 nM
Binder: XXXQRPRLSHKGPXPF ({hexanoyl}[AC4Abu][Aeea][Aeea]QRP[hArg][aMeLeu]SHKGP[Nle]P[4-Cl-F]{COOH}) [SEQ ID NO: 559]

EC50 Rat APJ Receptor (rat APJ receptor [1]): 0.871 nM
Binder: Ac-[hArg][dR]Q[hArg]E[dR][NMeL]SHKG[Oic][Phe(4-I)]P[dBip]-OH [SEQ ID NO: 78]

EC50 Rat APJ Receptor (rat APJ receptor [1]): 6.69 nM
Binder: XXXQRPRLSHKGPXPF ({hexanoyl}[AC4Abu][Aeea][Aeea]QrP[hArg][aMeLeu]SHKGP[Nle]P[4-Cl-F]{COOH}) [SEQ ID NO: 514]

EC50 Rat APJ Receptor (rat APJ receptor [1]): 2.47 nM
B3: SEQ ID NO: 291 (peptide)
peptide: {HOOC(CH2)8CO}-[γGlu][AEEA][AEEA][hArg][dR]Q[hArg]P[dR][NMeL]SHKG[Oic][Phe(4-I)]P[dBip]-OH
SMILES: CC(C)C[C@@H](C(=O)N[C@@H](CO)C(=O)N[C@@H](Cc1c[nH]cn1)C(=O)N[C@@H](CCCCN)C(=O)NCC(=O)N1[C@H](C(=O)N[C@@H](Cc2ccc(I)cc2)C(=O)N2CCC[C@H]2C(=O)N[C@H](Cc2ccc(-c3ccccc3)cc2)C(=O)O)C[C@@H]2CCCC[C@@H]21)N(C)C(=O)[C@@H](CCCNC(=N)N)NC(=O)[C@@H]1CCCN1C(=O)[C@H](CCCCNC(=N)N)NC(=O)[C@H](CCC(N)=O)NC(=O)[C@@H](CCCNC(=N)N)NC(=O)[C@H](CCCCNC(=N)N)NC(=O)COCCOCCNC(=O)COCCOCCNC(=O)CC[C@H](NC(=O)CCCCCCCCC(=O)O)C(=O)O

Second part, the binder before the results:

Binder: XXXQRPRLSHKGPXPF ({TDA}[AC4Abu][Aeea][Aeea]QR[aMePro][hArg][aMeLeu]SHKGP[Nle]P[4-Cl-F]{COOH}) [Apelin polypeptide SEQ ID NO: 482]
EC50 Human APJ Receptor (GTPγS assay) (human APJ receptor): 0.0862 nM

Binder: XXXQRPRLSHKGPXPF ({TDA}[AC4Abu][Aeea][Aeea]Q[hArg]P[NMeArg][BLeu]SHKGP[Nle]P[4-Cl-F]{COOH}) [Apelin polypeptide SEQ ID NO: 383]
EC50 Human APJ Receptor (GTPγS assay) (human APJ receptor): 0.535 nM

Binder: Tridecanoyl-[AC4Abu″][AEEA][AEEA]QRP[NMeR]LSH[Nle]GP[Nle]P[Phe(4-Cl)]-OH (reading uncertain) [Apelin polypeptide SEQ ID NO: 466]
EC50 Human APJ Receptor (GTPγS assay) (human APJ receptor): 0.0461 nM

B1: Apelin polypeptide SEQ ID NO: 419 (peptide)
peptide: Tridecanoyl-[AC4Abu][AEEA][AEEA]QRP[NMeR][Cha]SAKG[Oic][Nle]P[Phe(4-Cl)]-OH
SMILES: CCCCCCCCCCCCC(=O)NCCC(C(=O)O)C(=O)NCCOCCOCC(=O)NCCOCCOCC(=O)N[C@@H](CCC(N)=O)C(=O)N[C@@H](CCCNC(=N)N)C(=O)N1CCC[C@H]1C(=O)N(C)[C@@H](CCCNC(=N)N)C(=O)N[C@@H](CC1CCCCC1)C(=O)N[C@@H](CO)C(=O)N[C@@H](C)C(=O)N[C@@H](CCCCN)C(=O)NCC(=O)N1[C@H](C(=O)N[C@@H](CCCC)C(=O)N2CCC[C@H]2C(=O)N[C@@H](Cc2ccc(Cl)cc2)C(=O)O)C[C@@H]2CCCC[C@@H]21
EC50 Rat APJ Receptor (GTPγS assay) (rat APJ receptor [2]): 0.379 nM

Binder: Tridecanoyl-[AC4Abu″][AEEA][AEEA]QR[β3hP][NMeR][Cha]SHKG[Oic][Nle]P[Phe(4-Cl)]-OH (reading uncertain) [Apelin polypeptide SEQ ID NO: 441]
EC50 Human APJ Receptor (GTPγS assay) (human APJ receptor): 1.9 nM

Binder: QRPRLSHKGPXPF ({Acetyl-NH}QRP[NMeArg]LSHKGP[Nle]P[4-Cl-F]{COOH}) [SEQ ID NO: 68]
EC50 Rat APJ Receptor (rat APJ receptor [1]): 0.384 nM

Binder: Tridecanoyl-[γGlu][AEEA][AEEA][dQ]RP[NMeR][Cha]SHKG[Oic][Nle][Aib][Phe(4-Cl)]-OH [Apelin polypeptide SEQ ID NO: 540]
EC50 Human APJ Receptor (GTPγS assay) (human APJ receptor): 0.41 nM

B2: SEQ ID NO: 73 (peptide)
peptide: Ac-QR[NMehArg]LSHKGP[Nle]P[Phe(4-Cl)]-OH
SMILES: CCCC[C@H](NC(=O)[C@@H]1CCCN1C(=O)CNC(=O)[C@H](CCCCN)NC(=O)[C@H](Cc1c[nH]cn1)NC(=O)[C@H](CO)NC(=O)[C@H](CC(C)C)NC(=O)[C@H](CCCCNC(=N)N)N(C)C(=O)[C@H](CCCNC(=N)N)NC(=O)[C@H](CCC(N)=O)NC(C)=O)C(=O)N1CCC[C@H]1C(=O)N[C@@H](Cc1ccc(Cl)cc1)C(=O)O
EC50 Rat APJ Receptor (rat APJ receptor [1]): 47.2 nM
